Test [1] addresses T1, huPSG1-His6 (CC66 Novoprotein) (human, UniProt P11464 35-419, limits assumed).
T1 construct: also called human PSG1
The test is described as follows: ELISA, protein coated at 12 nM. Background: In an ELISA, binding on a coated surface is turned into a signal by an enzyme label.

Test [2] has as its target T2, huCEACAM6-His6 (3934-CM R&D Systems and recombinant protein obtained from Syngene) (human, UniProt P40199 35-320).
T2 construct: Two sources of the protein are named; the result is told once; also called human CEACAM6
T2 sequence (looked up): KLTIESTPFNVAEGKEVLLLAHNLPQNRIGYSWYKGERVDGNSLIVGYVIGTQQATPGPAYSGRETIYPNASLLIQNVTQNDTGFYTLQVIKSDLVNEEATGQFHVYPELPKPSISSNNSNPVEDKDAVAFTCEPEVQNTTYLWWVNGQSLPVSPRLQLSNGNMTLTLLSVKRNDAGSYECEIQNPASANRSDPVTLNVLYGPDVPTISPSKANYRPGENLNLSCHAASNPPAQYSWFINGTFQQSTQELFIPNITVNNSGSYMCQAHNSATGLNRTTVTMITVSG
Put plainly: ELISA, protein coated at 12 nM.

Test [3] addresses T3, huCEACAM1-His6 (2244-CM R&D Systems) (human, UniProt P13688 35-428).
T3 construct: also called human CEACAM1
T3 sequence (looked up): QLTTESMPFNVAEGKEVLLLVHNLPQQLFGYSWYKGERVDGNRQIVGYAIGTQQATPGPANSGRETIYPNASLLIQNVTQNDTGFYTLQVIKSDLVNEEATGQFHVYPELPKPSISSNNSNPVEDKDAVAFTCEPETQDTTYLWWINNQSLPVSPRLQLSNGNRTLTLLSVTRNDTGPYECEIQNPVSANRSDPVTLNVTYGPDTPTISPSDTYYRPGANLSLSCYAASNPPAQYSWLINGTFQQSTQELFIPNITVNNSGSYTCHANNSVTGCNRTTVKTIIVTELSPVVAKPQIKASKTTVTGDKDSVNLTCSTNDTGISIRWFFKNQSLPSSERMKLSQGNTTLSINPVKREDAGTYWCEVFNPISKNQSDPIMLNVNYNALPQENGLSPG
The test is described as follows: ELISA, protein coated at 12 nM.

Test [4] has as its target T4, huCEACAM3-His6 (C449 Novoprotein) (human, UniProt P40198 35-155, limits assumed).
T4 construct: also called human CEACAM3
T4 sequence (looked up): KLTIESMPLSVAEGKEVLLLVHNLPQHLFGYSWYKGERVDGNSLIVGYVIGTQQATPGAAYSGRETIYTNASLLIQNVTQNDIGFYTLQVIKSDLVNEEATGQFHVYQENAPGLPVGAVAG
Put plainly: ELISA, protein coated at 12 nM.

The target in test [5] is T5, huCEACAM7-His6 (C926 Novoprotein) (human, UniProt Q14002 36-242, limits assumed).
T5 construct: also called human CEACAM7
T5 sequence (looked up): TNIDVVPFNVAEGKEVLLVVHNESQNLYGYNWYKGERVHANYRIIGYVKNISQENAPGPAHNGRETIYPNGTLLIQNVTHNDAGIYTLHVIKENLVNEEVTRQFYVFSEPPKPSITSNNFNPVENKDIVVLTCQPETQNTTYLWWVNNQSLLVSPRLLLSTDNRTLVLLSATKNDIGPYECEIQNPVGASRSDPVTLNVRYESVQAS
The test is described as follows: ELISA, protein coated at 12 nM.

The target of test [6] is T6, huCEACAM8-His6 (C583 Novoprotein) (human, UniProt P31997 35-320, limits assumed).
T6 construct: also called human CEACAM8
T6 sequence (looked up): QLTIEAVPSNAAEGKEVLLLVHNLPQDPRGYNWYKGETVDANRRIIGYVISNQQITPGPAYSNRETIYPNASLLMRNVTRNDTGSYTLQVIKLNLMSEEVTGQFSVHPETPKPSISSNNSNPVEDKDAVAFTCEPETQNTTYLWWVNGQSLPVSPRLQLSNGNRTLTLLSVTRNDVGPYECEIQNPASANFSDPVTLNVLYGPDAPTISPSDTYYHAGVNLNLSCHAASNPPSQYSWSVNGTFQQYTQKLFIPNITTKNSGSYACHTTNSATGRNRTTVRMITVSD
The test is described as follows: ELISA, protein coated at 12 nM.

Test [7] has as its target T7, huCEACAM5-His6 (R&D Systems #4128-CM) (human, UniProt P06731 35-685).
T7 construct: Bought protein; also called human CEACAM5; not shown: His6 tag
T7 sequence: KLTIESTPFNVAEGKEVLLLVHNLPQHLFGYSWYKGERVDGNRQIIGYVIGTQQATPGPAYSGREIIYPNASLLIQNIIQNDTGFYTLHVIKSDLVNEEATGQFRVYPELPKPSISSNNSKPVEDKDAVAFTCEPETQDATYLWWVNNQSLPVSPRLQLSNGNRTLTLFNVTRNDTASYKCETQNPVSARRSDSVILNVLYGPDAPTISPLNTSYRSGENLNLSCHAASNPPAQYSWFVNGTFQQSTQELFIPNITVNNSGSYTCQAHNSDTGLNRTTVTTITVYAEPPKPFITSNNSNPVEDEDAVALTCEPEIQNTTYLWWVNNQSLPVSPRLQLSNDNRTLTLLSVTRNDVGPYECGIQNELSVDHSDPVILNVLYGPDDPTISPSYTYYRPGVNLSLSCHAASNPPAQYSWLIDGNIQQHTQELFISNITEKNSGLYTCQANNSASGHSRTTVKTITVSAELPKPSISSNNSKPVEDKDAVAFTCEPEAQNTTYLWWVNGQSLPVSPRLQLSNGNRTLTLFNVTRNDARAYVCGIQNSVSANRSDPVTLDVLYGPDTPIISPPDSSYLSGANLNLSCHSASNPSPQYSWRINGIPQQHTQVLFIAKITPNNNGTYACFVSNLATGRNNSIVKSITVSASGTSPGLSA
The test is described as follows: ELISA, protein coated at 12 nM; Fab, not IgG.

Test [8] addresses T8, human_CEACAM5_ECD-his-biotin (R&D Systems) (human, UniProt P06731 35-685, biotinylated using routine methods (sites not given)).
T8 construct: Bought protein; not shown: His tag and any linker
T8 sequence: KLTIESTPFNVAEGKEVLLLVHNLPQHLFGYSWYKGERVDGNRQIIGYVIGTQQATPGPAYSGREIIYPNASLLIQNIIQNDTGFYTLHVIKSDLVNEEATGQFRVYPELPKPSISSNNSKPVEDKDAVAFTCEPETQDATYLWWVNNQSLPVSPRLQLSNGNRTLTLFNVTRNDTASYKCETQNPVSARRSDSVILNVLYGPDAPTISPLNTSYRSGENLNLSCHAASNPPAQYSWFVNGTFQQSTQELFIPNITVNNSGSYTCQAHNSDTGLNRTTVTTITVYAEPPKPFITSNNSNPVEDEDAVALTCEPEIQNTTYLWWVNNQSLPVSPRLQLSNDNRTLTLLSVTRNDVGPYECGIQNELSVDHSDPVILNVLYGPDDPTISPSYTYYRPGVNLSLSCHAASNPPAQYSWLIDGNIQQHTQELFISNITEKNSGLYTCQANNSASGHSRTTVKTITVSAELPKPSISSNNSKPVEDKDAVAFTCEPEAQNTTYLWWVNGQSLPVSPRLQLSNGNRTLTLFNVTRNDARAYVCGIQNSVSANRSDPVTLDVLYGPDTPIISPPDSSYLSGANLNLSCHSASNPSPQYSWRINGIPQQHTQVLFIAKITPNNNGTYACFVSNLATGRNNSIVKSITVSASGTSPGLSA
The test is described as follows: BLI (Octet Red), biotinylated antigen captured on streptavidin biosensor, Fab as analyte 6.25-200 nM. In general terms: Biolayer interferometry detects binding as a change in optical thickness at a sensor tip.

Test [9] concerns the target T9, BSA (bovine serum albumin) (bovine, UniProt P02769 25-607).
T9 construct: Negative control; also called unrelated protein
Put plainly: ELISA.

T1 sequence (P11464 35-419 limits assumed): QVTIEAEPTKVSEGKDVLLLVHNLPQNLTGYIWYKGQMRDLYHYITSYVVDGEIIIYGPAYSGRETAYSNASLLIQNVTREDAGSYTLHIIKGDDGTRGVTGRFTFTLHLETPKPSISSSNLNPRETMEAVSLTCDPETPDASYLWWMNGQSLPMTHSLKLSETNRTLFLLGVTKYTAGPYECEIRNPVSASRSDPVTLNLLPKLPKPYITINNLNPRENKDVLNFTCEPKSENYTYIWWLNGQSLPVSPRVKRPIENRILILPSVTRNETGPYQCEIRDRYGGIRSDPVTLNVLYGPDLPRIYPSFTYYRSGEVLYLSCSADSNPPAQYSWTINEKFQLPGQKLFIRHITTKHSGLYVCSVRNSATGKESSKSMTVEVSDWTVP
T9 sequence (P02769 25-607 limits assumed): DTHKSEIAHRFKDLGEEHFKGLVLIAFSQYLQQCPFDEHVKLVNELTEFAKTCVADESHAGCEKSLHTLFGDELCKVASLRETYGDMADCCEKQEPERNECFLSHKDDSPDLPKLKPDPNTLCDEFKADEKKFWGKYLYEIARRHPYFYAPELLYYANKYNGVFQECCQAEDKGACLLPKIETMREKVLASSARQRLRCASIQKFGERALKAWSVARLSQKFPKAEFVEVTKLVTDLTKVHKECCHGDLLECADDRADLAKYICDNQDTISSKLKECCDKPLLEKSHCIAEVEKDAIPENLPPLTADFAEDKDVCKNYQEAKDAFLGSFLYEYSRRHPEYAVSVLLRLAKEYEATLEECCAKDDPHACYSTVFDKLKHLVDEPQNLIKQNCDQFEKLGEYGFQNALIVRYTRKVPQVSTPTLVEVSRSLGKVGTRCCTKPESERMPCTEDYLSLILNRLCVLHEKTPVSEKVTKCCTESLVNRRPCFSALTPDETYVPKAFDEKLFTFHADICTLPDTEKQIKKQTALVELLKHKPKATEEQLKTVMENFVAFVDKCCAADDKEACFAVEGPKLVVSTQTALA

B1: Fab of mAb1 (Fab, V domains shown)
VH: EVQLQESGPGLVKPSQTLSLTCTVSDGSVSRGGYYLTWIRQHPGKGLEWIGYIYYSGSTYFNPSLRSRVTMSVDTSKNQFSLKLSSVTAADTAVYYCARGIAVAPFDYWGQGTLVTVSS
VL: EIVLTQSPATLSVSPGERATLSCRTSQSVRSNLAWYQQKPGQAPRLLIYAASTRATGIPARFSGSGSGTEFTLTISSLQSEDFAVYYCQQYTNWPFTFGPGTKVDIK
notes: Fab format of mAb1; also called Fab generated from mAb1
Take B1: the binding result in test [1], in test [2], in test [3], in [4], in test [5] and in test [6] was “no binding (tested: 1000 nM)” each time. In test [9], the binding result is on record as “no binding (tested: all concentrations tested)”. Besides, the EC50 (usually the concentration needed to bring the measured effect to its halfway point) in test [7] is 3.04 nM. Also, the Kd (commonly the equilibrium constant for the complex coming apart) in test [8] is 6.3 nM.
